Measured values reported in patent publication US20210070829A1 (ZHEJIANG DOER BIOLOGICS, published 2021).
Positions count from the first letter of the chain named.

What was measured:
Assay in all cases: cell-based or functional assay
[1] = biological target: FGFR/β-Klotho receptor complex
[2] = biological target: human GLP-1 receptor (human, UniProt P43220 24-463)
[3] = biological target: Glucagon receptor

B1: C495 L9F10L9M1 (Fc fusion)
chain: HSQGTFTSDYSKYLDEQAAQDFVQWLMNGGPSSGAPPPSGGGGSGGGGSGGGGSESKYGPPCPPCPAPEAAGGPSVFLFPPKPKDTLMISRTPEVTCVVVDVSQEDPEVQFNWYVDGVEVHNAKTKPREEQFASTYRVVSVLTVLHQDWLNGKEYKCKVSNKGLPSSIEKTISKAKGQPREPQVYTLPPSQEEMTKNQVSLTCLVKGFYPSDIAVEWESNGQPENNYKTTPPVLDSDGSFFLYSRLTVDKSRWQEGNVFSCSVMHEALHNHYTQKSLSLSLGGGGGSGGGGSGGGGSHPIPDSSPLLQFGGQVRQRYLYTDDAQQTEAHLEIREDGTVGGAADQSPESLLQLKALKPGVIQILGVKTSRFLCQRPDGALYGSLHFDPEACSFRERLLEDGYNVYQSEAHGLPLHLPGNKSPHRDPAPRGPARFLPLPGLPPALPEPPGILAPQPPDVGSSDPLSMVGGSQGRSPSYES
With B1 the “FGF21 activity EC50 (luciferase reporter)” value (from here on “FGF21 activity EC50”) [1] was 0.84 nM, the “GLP-1R agonist activity EC50 (luciferase reporter)” value (“GLP-1R agonist activity EC50” below) [2] was 1.21 nM and the “GCGR agonist activity EC50 (luciferase reporter)” value (“GCGR agonist activity EC50” below) [3] was 1.43 nM.

B2: C225 L10F10L14M2 (Fc fusion)
chain: HSQGTFTSDYSKYLDERAAQDFVQWLMNTGPSSGAPPPSGGGGAGGGGAGGGGAESKYGPPCPPCPAPEAAGGPSVFLFPPKPKDTLMISRTPEVTCVVVDVSQEDPEVQFNWYVDGVEVHNAKTKPREEQFASTYRVVSVLTVLHQDWLNGKEYKCKVSNKGLPSSIEKTISKAKGQPREPQVYTLPPSQEEMTKNQVSLTCLVKGFYPSDIAVEWESNGQPENNYKTTPPVLDSDGSFFLYSRLTVDKSRWQEGNVFSCSVMHEALHNHYTQKSLSLSLGGGGGAGGGGAGGGGASHPIPDSSPLLQFGGQVRQRYLYTDDAQQTEAHLEIREDGTVGGAADQSPESLLQLKALKPGVIQILGVKTSRFLCQRPDGALYGSLHFDPEACSFRERLLEDGYNVYQSEAHGLPLHCPGNKSPHRDPAPRGPCRFLPLPGLPPALPEPPGILAPQPPDVGSSDPLSMVGGSQGRSPSYES
For B2, the “FGF21 activity EC50” value [1] was 0.85 nM, the “GLP-1R agonist activity EC50” value [2] was 1.42 nM and the “GCGR agonist activity EC50” value [3] was 1.17 nM.

B3: C227 L12F5L14M4 (Fc fusion)
chain: HSQGTFTSDYSKYLDSQAAQDFVQWLMNTGPSSGAPPSGGGGAGGGGAGGGGAAERKCCVECPPCPAPPVAGPSVFLFPPKPKDTLMISRTPEVTCVVVDVSHEDPEVQFNWYVDGVEVHNAKTKPREEQFNSTFRVVSVLTVVHQDWLNGKEYKCKVSNKGLPSSIEKTISKTKGQPREPQVYTLPPSREEMTKNQVSLTCLVKGFYPSDIAVEWESNGQPENNYKTTPPMLDSDGSFFLYSKLTVDKSRWQQGNVFSCSVMHEALHNHYTQKSLSLSPGGGGGAGGGGAGGGGASHPIPDSSPLLQFGGQVRQRYLYTDDAQQTEAHLEIREDGTVGGAADQSPESLLQLKALKPGVIQILGVKTSRFLCQRPDGALYGSLHFDPEACSFRERLLEDGYNVYQSEAHGLPLHCPGNKSPHRDPAPRGPCRFLPLPGLPPALPEPPGILAPQPPDVGSSDPLAMVGGSQGRSPSYES
B3 was tested, and the “FGF21 activity EC50” value [1] was 0.71 nM, the “GLP-1R agonist activity EC50” value [2] was 1.55 nM and the “GCGR agonist activity EC50” value [3] was 1.38 nM.

B4: C240 L13F10L9M2 (Fc fusion)
chain: HSQGTFTSDYSKYLDERAAQDFVQWLMNGGPSSGAPPPSGGGGSGGGGSGGGGSAESKYGPPCPPCPAPEAAGGPSVFLFPPKPKDTLMISRTPEVTCVVVDVSQEDPEVQFNWYVDGVEVHNAKTKPREEQFASTYRVVSVLTVLHQDWLNGKEYKCKVSNKGLPSSIEKTISKAKGQPREPQVYTLPPSQEEMTKNQVSLTCLVKGFYPSDIAVEWESNGQPENNYKTTPPVLDSDGSFFLYSRLTVDKSRWQEGNVFSCSVMHEALHNHYTQKSLSLSLGGGGGSGGGGSGGGGSHPIPDSSPLLQFGGQVRQRYLYTDDAQQTEAHLEIREDGTVGGAADQSPESLLQLKALKPGVIQILGVKTSRFLCQRPDGALYGSLHFDPEACSFRERLLEDGYNVYQSEAHGLPLHCPGNKSPHRDPAPRGPCRFLPLPGLPPALPEPPGILAPQPPDVGSSDPLSMVGGSQGRSPSYES
For B4, the “FGF21 activity EC50” value [1] was 0.89 nM, the “GLP-1R agonist activity EC50” value [2] was 1.21 nM and the “GCGR agonist activity EC50” value [3] was 1.25 nM.

B5: C462 L13F10L9M4 (Fc fusion)
chain: B4 chain with R17E, S465A
For B5, the “FGF21 activity EC50” value [1] was 1.33 nM, the “GLP-1R agonist activity EC50” value [2] was 1.11 nM and the “GCGR agonist activity EC50” value [3] was 1.23 nM.

B6: C382 L13F10L9M1 (Fc fusion)
chain: B4 chain with E16S, R17Q, C416L, C432A
For B6, the “FGF21 activity EC50” value [1] was 0.76 nM, the “GLP-1R agonist activity EC50” value [2] was 1.13 nM and the “GCGR agonist activity EC50” value [3] was 1.27 nM.

B7: C462 L10F5L10M3 (Fc fusion)
chain: HSQGTFTSDYSKYLDEEAAQDFVQWLMNGGPSSGAPPPSGGGGAGGGGAGGGGAERKCCVECPPCPAPPVAGPSVFLFPPKPKDTLMISRTPEVTCVVVDVSHEDPEVQFNWYVDGVEVHNAKTKPREEQFNSTFRVVSVLTVVHQDWLNGKEYKCKVSNKGLPSSIEKTISKTKGQPREPQVYTLPPSREEMTKNQVSLTCLVKGFYPSDIAVEWESNGQPENNYKTTPPMLDSDGSFFLYSKLTVDKSRWQQGNVFSCSVMHEALHNHYTQKSLSLSPGGGGGAGGGGAGGGGADSSPLLQFGGQVRQRYLYTDDAQQTEAHLEIREDGTVGGAADQSPESLLQLKALKPGVIQILGVKTSRFLCQRPDGALYGSLHFDPEACSFRELLLEDGYNVYQSEAHGLPLHCPGNKSPHRDPAPRGPCRFLPLPGLPPALPEPPGILAPQPPDVGSSDPLAMVGPSQGRSPSYAS
In the case of B7, the “FGF21 activity EC50” value [1] is reported as 1.37 nM, the “GLP-1R agonist activity EC50” value [2] is reported as 1.23 nM and the “GCGR agonist activity EC50” value [3] is reported as 1.22 nM.
